Test results: US20250135039A1, “INHIBITOR-RESISTANT MGMT MODIFICATIONS AND MODIFICATION OF MGMT-ENCODING NUCLEIC ACIDS” (Ensoma, Inc., priority 2022, published 2025)
Numbering of substitutions follows the chain as printed. Names and notes keep the numbering of the source.

B1: R135G: MGMT polypeptide with mutation R135G (protein)
chain: MDKDCEMKRTTLDSPLGKLELSGCEQGLHEIKLLGKGTSAADAVEVPAPAAVLGGPEPLMQCTAWLNAYFHQPEAIEEFPVPALHHPVFQQESFTRQVLWKLLKVVKFGEVISYQQLAALAGNPKAARAVGGAMGGNPVPILIPCHRVVCSSGAVGNYSGGLAVKEWLLAHEGHRLGKPGLGGSSGLAGAWLKGAGATSGSPPAGRN
B2: P140Q: MGMT polypeptide with mutation P140Q (protein)
chain: B1 chain with G135R, P140Q
B3: P138K: MGMT polypeptide with mutation P138K (protein)
chain: B1 chain with G135R, P138K
B4: R135K: MGMT polypeptide with mutation R135K (protein)
chain: B1 chain with G135K
B5: N137D: MGMT polypeptide with mutation N137D (protein)
chain: B1 chain with G135R, N137D
B6: R135L: MGMT polypeptide with mutation R135L (protein)
chain: B1 chain with G135L
B7: N137P: MGMT polypeptide with mutation N137P (protein)
chain: B1 chain with G135R, N137P
B8: P140F: MGMT polypeptide with mutation P140F (protein)
chain: B1 chain with G135R, P140F
B9: R135T: MGMT polypeptide with mutation R135T (protein)
chain: B1 chain with G135T
B10: P140H: MGMT polypeptide with mutation P140H (protein)
chain: B1 chain with G135R, P140H
B11: N137F: MGMT polypeptide with mutation N137F (protein)
chain: B1 chain with G135R, N137F
B12: P140I: MGMT polypeptide with mutation P140I (protein)
chain: B1 chain with G135R, P140I

System: U251 human glioblastoma cell line
Test: in vitro FM-HCR assay of MGMT activity (mPlum O^6MeG reporter plasmid)
Type: cell-based
Settings: for Reporter expression (%) mean, O^6BG: 100 μM O^6BG; for Reporter expression (%) mean, O^6BG / Reporter expression (%) mean, DMSO: U251 cells, flow cytometry 24 h after transfection, damaged/undamaged reporter, inversely related to MGMT activity; for Reporter expression (%) mean, DMSO: 0.1% DMSO; for MGMT activity (a.u.) DMSO / MGMT activity (% of WT) DMSO: DMSO condition; for MGMT activity (a.u.) DMSO / MGMT activity (a.u.) O^6BG: determined from percent reporter expression; for MGMT activity (% of WT) DMSO / MGMT activity (% of WT) O^6BG: relative to wild-type MGMT in same condition; for Relative MGMT activity (%): MGMT activity (a.u.) in O^6BG divided by DMSO x 100, higher values indicate resistance; for MGMT activity (a.u.) O^6BG / MGMT activity (% of WT) O^6BG: O^6BG condition; for Ratio percent reporter expression (O^6BG/DMSO): lower values indicate resistance to O^6BG; for O^6BG resistance relative to WT (%): percentage difference in relative MGMT activity between variant and wild-type MGMT
Description: The present Example includes, in part, an in vitro fluorescence multiplex host cell reactivation (FM-HCR) assay in which a reporter plasmid with O^6MeG-containing oligonucleotides is used. The oligonucleotides induce transcription errors that lead to expression of fluorescent mPlum protein. Functional MGMT will repair the O^6MeG sites and reduce mPlum expression. This represents a rapid and validated assay system to assess intracellular activity of MGMT. Further description of certain such assays is found in Nagel (2014 PNAS USA 111 (18): E1823-32, which is incorporated herein by reference.
The present Example uses an in vitro FM-HCR assay in which a reporter plasmid with 0° MeG-containing oligonucleotides is used to assay MGMT activity in cells. The O^6MeG-containing oligonucleotides induce transcription errors that lead to expression of fluorescent mPlum protein. Functional MGMT will repair the O'MeG sites and reduce mPlum expression. This represents a rapid and validated assay system to assess intracellular activity of MGMT. Further description of certain such assays is found in Nagel et al., 2014 PNAS USA 111 (18): E1823-32 and Piett et al., 2021 Nat. Protoc. 16 (9): 4265-4298, each of which is incorporated herein by reference.
The in vitro FM-HCR assay was performed using the U251 human glioblastoma cell line. The cells were cultured in DMEM with 10% FBS and passaged every three days.
To express MGMT variants in the cells, plasmids encoding each MGMT variant were designed and generated by either de novo synthesis or cloning into the pTwist EF1 Alpha Puro vector at the HindII-BamHI multiple cloning site. The pTwist EF1 Alpha Puro plasmid vector drives expression of the MGMT transcript from a human EF1-alpha promoter including intron 1 and an SV40 polyadenylation signal. Plasmids encoding the MGMT variants were purified using standard molecular biology techniques from E. coli with low endotoxins. Plasmids encoding wild-type MGMT or O^6BG-resistant MGMT^P140K were also designed and generated for use as controls.
To perform the in vitro FM-HCR assay, U251 cells were seeded in 12-well plates at a density of 50,000 cells per well in 1 mL culture media. The following day, the media was changed to 1 mL of culture media containing O^6BG (100 μM O^6BG and 0.1% DMSO final) or 0.1% DMSO; and the cells were transfected with 1,000 ng of a plasmid cocktail using Lipofectamine 3000 (ThermoFisher Scientific) at 1.8 μL Lipofectamine 3000 Reagent and 2 μL P3000 reagent in Opti-MEM medium (ThermoFisher Scientific). […] For the “undamaged” condition, the plasmid cocktail replaced the mPlum O^6MeG reporter plasmid with 100 ng of a plasmid expressing mPlum. The plasmid encoding BFP was used as an internal transfection control. For transfections where no MGMT encoding plasmid is used (no pMGMT), 250 ng of additional carrier plasmid was used to maintain a total DNA amount of 1,000 ng in each transfection. Four hours after transfection, the transfection medium was changed.
All transfected cells were analyzed by flow cytometry at 24-hours after transfection. Data was analyzed as previously described in Nagel et al., 2014 PNAS USA 111 (18): E1823-32 and Piett et al., 2021 Nat. Protoc. 16 (9): 4265-4298. For each condition, normalized reporter expression was determined by taking the product of the mPlum-positive cell count and the mean mPlum fluorescence intensity in mPlum-positive cells and dividing it by the product of the BFP-positive cell count and the mean BFP fluorescence intensity in BFP-positive cells. Next, for each MGMT variant, the percent reporter expression was determined by taking the normalized reporter expression in the “damaged” condition and dividing it by the normalized reporter expression in the “undamaged” condition, and then multiplying by 100 to obtain a percent value. […]

| Molecule | Reporter expression (%) mean, O^6BG [%] | Reporter expression (%) mean, DMSO [%] | MGMT activity (a.u.) DMSO [a.u.] | MGMT activity (% of WT) DMSO | Relative MGMT activity (%) | MGMT activity (a.u.) O^6BG [a.u.] | MGMT activity (% of WT) O^6BG | Ratio percent reporter expression (O^6BG/DMSO) | O^6BG resistance relative to WT (%) |
| --- | --- | --- | --- | --- | --- | --- | --- | --- | --- |
| B1 | 106.0 | 20.0 | 5.00 | 92.5 % of WT | 18.9 | 0.94 | 66.0 % of WT | 5.30 | −28.6 |
| B2 | 49.0 | 15.3 | 6.52 | 120.7 % of WT | 31.3 | 2.04 | 142.9 % of WT | 3.20 | 18.4 |
| B3 | 64.0 | 16.3 | 6.12 | 113.3 % of WT | 25.5 | 1.56 | 109.4 % of WT | 3.92 | −3.4 |
| B4 | 84.3 | 13.3 | 7.50 | 138.8 % of WT | 15.8 | 1.19 | 83.0 % of WT | 6.33 | −40.2 |
| B5 | 80.7 | 52.3 | 1.91 | 35.4 % of WT | 64.9 | 1.24 | 86.8 % of WT | 1.54 | 145.5 |
| B6 | 82.5 | 42.8 | 2.34 | 43.3 % of WT | 51.8 | 1.21 | 84.8 % of WT | 1.93 | 96.1 |
| B7 | 93.0 | 94.0 | 1.06 | 19.7 % of WT | 101.1 | 1.08 | 75.3 % of WT | 0.99 | 282.4 |
| B8 | 76.8 | 25.3 | 3.96 | 73.3 % of WT | 32.9 | 1.30 | 91.2 % of WT | 3.04 | 24.5 |
| B9 | 101.7 | 27.3 | 3.66 | 67.7 % of WT | 26.9 | 0.98 | 68.9 % of WT | 3.72 | 1.7 |
| B10 | 29.3 | 15.7 | 6.38 | 118.1 % of WT | 53.4 | 3.41 | 238.6 % of WT | 1.87 | 102.1 |
| B11 | 104.3 | 109.7 | 0.91 | 16.9 % of WT | 105.1 | 0.96 | 67.1 % of WT | 0.95 | 297.7 |
| B12 | 31.0 | 14.7 | 6.82 | 126.1 % of WT | 47.3 | 3.23 | 225.8 % of WT | 2.11 | 79.0 |
